T1: UGT1A8 (Homo sapiens, UniProt Q9HAW9)
T1 sequence (Q9HAW9 26-530): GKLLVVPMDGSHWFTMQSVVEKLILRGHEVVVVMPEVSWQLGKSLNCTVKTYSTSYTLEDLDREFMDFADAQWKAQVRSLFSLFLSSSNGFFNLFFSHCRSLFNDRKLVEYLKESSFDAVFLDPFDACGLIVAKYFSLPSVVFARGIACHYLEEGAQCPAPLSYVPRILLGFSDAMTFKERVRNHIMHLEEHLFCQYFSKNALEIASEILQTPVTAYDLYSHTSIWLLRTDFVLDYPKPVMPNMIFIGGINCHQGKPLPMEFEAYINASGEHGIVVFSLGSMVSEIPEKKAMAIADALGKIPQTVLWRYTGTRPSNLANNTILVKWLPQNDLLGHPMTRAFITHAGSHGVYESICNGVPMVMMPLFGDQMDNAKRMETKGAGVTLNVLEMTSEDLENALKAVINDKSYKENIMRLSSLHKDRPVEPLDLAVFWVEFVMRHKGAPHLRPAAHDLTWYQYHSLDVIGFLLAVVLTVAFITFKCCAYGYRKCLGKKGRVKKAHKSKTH


Tests used:
UGT1A8 = target: T1, UGT1A8; assay: UGT1A8-catalyzed glucuronidation, enzyme kinetics; conditions: 1% DMSO; entacapone glucuronidation; absence and presence of 0.1% BSA
Method: Recombinant human UGTs 1A1, 1A6, 1A7, 1A8, 1A10, 2A1, 2B4, 2B7 and 2B17 were expressed as His-tagged proteins in baculovirus-infected insect cells as described previously [14]. […] Protein concentrations were determined by the BCA method (Pierce Biotechnology, Rockford, IL, USA).
(§1) The protein concentrations and incubation times for the enzyme kinetic assays were selected based on preliminary assays in order to ensure that the product formation was within the linear range with respect to both protein concentration and time, and that the substrate consumption during the reaction was less than 10%. The initial velocity measurements were performed in either duplicates or triplicates and they are presented as the average values and S.E.
The glucuronidation rates by recombinant enzymes are reported as “expression normalized” values. The relative expression level of each recombinant UGT that was produced in our laboratory was determined using immunoblotting, as previously described [14], [19]. The dot blot assays were performed in triplicate and the average value was used for normalization. […] The “expression normalized” glucuronidation rates were calculated by dividing the measured glucuronidation rates with relative expression level of the each given recombinant UGT.
(§2) In assays containing BSA, the total concentrations of substrate were corrected according to the measured drug binding to BSA, under the specific conditions of each glucuronidation assay.

[1] = substrate: Cc1cc(=O)oc2cc(O)ccc12; assay: purified protein, by the assay type; conditions: pH 7.4
[2] = substrate: CCN(CC)C(=O)/C(C#N)=C/c1cc(O)c(O)c([N+](=O)[O-])c1; assay: purified protein, by the assay type; conditions: pH 7.4
Method: Protein concentrations were determined by the BCA method (Pierce Biotechnology, Rockford, IL, USA).
as §1
The HPLC system consisted of an Agilent 1100 series degasser, binary pump, 100-vial autosampler, thermostated column compartment, multiple wavelengths UV detector, and fluorescence detector (Agilent Technologies, Palo Alto, CA, USA). […] The resulting chromatograms were analyzed with Agilent ChemStation software (rev. B.01.01) on Windows XP Professional. The UPLC system consisted of a Waters Acquity UPLC equipped with column manager, sample manager, binary solvent pump, and photodiode array UV detector (Waters, Milford, MA, USA). The UV detector was equipped with high-sensitivity 2.4 µL flow cell.
as §2

[3] = substrate: Oc1cccc2ccccc12; assay: purified protein, by the assay type; conditions: pH 7.4

| Molecule | reduction of the UGT activity (UGT1A8) | K0.5 [1] | Vmax [1] | K0.5 [2] | Vmax [2] | K0.5 [3] |
| --- | --- | --- | --- | --- | --- | --- |
| C[S+](C)[O-] [DMSO, Dimethyl sulfoxide] | ≤ 15% |  |  |  |  |  |
| UGT2B15 (Homo sapiens) (protein) GKVLVWPTEYSHWINMKTILEELVQRGHEVTVLTSSASTLVNASKSSAIKLEVYPTSLTKNYLEDSLLKILDRWIYGVSKNTFWSYFSQLQELCWEYYDYSNKLCKDAVLNKKLMMKLQESKFDVILADALNPCGELLAELFNIPFLYSLRFSVGYTFEKNGGGFLFPPSYVPVVMSELSDQMIFMERIKNMIHMLYFDFWFQIYDLKKWDQFYSEVLGRPTTLFETMGKAEMWLIRTYWDFEFPRPFLPNVDFVGGLHCKPAKPLPKEMEEFVQSSGENGIVVFSLGSMISNMSEESANMIASALAQIPQKVLWRFDGKKPNTLGSNTRLYKWLPQNDLLGHPKTKAFITHGGTNGIYEAIYHGIPMVGIPLFADQHDNIAHMKAKGAALSVDIRTMSSRDLLNALKSVINDPVYKENVMKLSRIHHDQPMKPLDRAVFWIEFVMRHKGAKHLRVAAHNLTWIQYHSLDVIAFLLACVATVIFIITKFCLFCFRKLAKKGKKKKRD |  | 29.6±0.9(27.6–31.5) uM | 0.00083 µmol/min/mg |  |  |  |
| UGT1A7 (Homo sapiens) (protein) GKLLVVPMDGSHWFTMQSVVEKLILRGHEVVVVMPEVSWQLGRSLNCTVKTYSTSYTLEDQDREFMVFADARWTAPLRSAFSLLTSSSNGIFDLFFSNCRSLFNDRKLVEYLKESCFDAVFLDPFDACGLIVAKYFSLPSVVFARGIFCHYLEEGAQCPAPLSYVPRLLLGFSDAMTFKERVWNHIMHLEEHLFCPYFFKNVLEIASEILQTPVTAYDLYSHTSIWLLRTDFVLEYPKPVMPNMIFIGGINCHQGKPVPMEFEAYINASGEHGIVVFSLGSMVSEIPEKKAMAIADALGKIPQTVLWRYTGTRPSNLANNTILVKWLPQNDLLGHPMTRAFITHAGSHGVYESICNGVPMVMMPLFGDQMDNAKRMETKGAGVTLNVLEMTSEDLENALKAVINDKSYKENIMRLSSLHKDRPVEPLDLAVFWVEFVMRHKGAPHLRPAAHDLTWYQYHSLDVIGFLLAVVLTVAFITFKCCAYGYRKCLGKKGRVKKAHKSKTH |  |  |  | 33.2±4.0(24.9–41.6) uM | 0.00015 µmol/min/mg |  |
| UGT2B7 (Homo sapiens) (protein) GKVLVWAAEYSHWMNIKTILDELIQRGHEVTVLASSASILFDPNNSSALKIEIYPTSLTKTELENFIMQQIKRWSDLPKDTFWLYFSQVQEIMSIFGDITRKFCKDVVSNKKFMKKVQESRFDVIFADAIFPCSELLAELFNIPFVYSLSFSPGYTFEKHSGGFIFPPSYVPVVMSELTDQMTFMERVKNMIYVLYFDFWFEIFDMKKWDQFYSEVLGRPTTLSETMGKADVWLIRNSWNFQFPYPLLPNVDFVGGLHCKPAKPLPKEMEDFVQSSGENGVVVFSLGSMVSNMTEERANVIASALAQIPQKVLWRFDGNKPDTLGLNTRLYKWIPQNDLLGHPKTRAFITHGGANGIYEAIYHGIPMVGIPLFADQPDNIAHMKARGAAVRVDFNTMSSTDLLNALKRVINDPSYKENVMKLSRIQHDQPVKPLDRAVFWIEFVMRHKGAKHLRVAAHDLTWFQYHSLDVIGFLLVCVATVIFIVTKCCLFCFWKFARKAKKGKND |  | 301±65(165–436) uM | 0.00028 µmol/min/mg |  |  |  |
| UGT1A10 (Homo sapiens) (protein) GKLLVVPMDGSHWFTMQSVVEKLILRGHEVVVVMPEVSWQLERSLNCTVKTYSTSYTLEDQNREFMVFAHAQWKAQAQSIFSLLMSSSSGFLDLFFSHCRSLFNDRKLVEYLKESSFDAVFLDPFDTCGLIVAKYFSLPSVVFTRGIFCHHLEEGAQCPAPLSYVPNDLLGFSDAMTFKERVWNHIVHLEDHLFCQYLFRNALEIASEILQTPVTAYDLYSHTSIWLLRTDFVLDYPKPVMPNMIFIGGINCHQGKPLPMEFEAYINASGEHGIVVFSLGSMVSEIPEKKAMAIADALGKIPQTVLWRYTGTRPSNLANNTILVKWLPQNDLLGHPMTRAFITHAGSHGVYESICNGVPMVMMPLFGDQMDNAKRMETKGAGVTLNVLEMTSEDLENALKAVINDKSYKENIMRLSSLHKDRPVEPLDLAVFWVEFVMRHKGAPHLRPAAHDLTWYQYHSLDVIGFLLAVVLTVAFITFKCCAYGYRKCLGKKGRVKKAHKSKTH |  |  |  | 56.7±2.3(51.9–61.5) uM | 0.00091 µmol/min/mg |  |
| UGT1A6 (Homo sapiens) (protein) DKLLVVPQDGSHWLSMKDIVEVLSDRGHEIVVVVPEVNLLLKESKYYTRKIYPVPYDQEELKNRYQSFGNNHFAERSFLTAPQTEYRNNMIVIGLYFINCQSLLQDRDTLNFFKESKFDALFTDPALPCGVILAEYLGLPSVYLFRGFPCSLEHTFSRSPDPVSYIPRCYTKFSDHMTFSQRVANFLVNLLEPYLFYCLFSKYEELASAVLKRDVDIITLYQKVSVWLLRYDFVLEYPRPVMPNMVFIGGINCKKRKDLSQEFEAYINASGEHGIVVFSLGSMVSEIPEKKAMAIADALGKIPQTVLWRYTGTRPSNLANNTILVKWLPQNDLLGHPMTRAFITHAGSHGVYESICNGVPMVMMPLFGDQMDNAKRMETKGAGVTLNVLEMTSEDLENALKAVINDKSYKENIMRLSSLHKDRPVEPLDLAVFWVEFVMRHKGAPHLRPAAHDLTWYQYHSLDVIGFLLAVVLTVAFITFKCCAYGYRKCLGKKGRVKKAHKSKTH |  | 76.4±15.1(45.3–107.5) uM | 0.0052 µmol/min/mg |  |  | 8.07±0.48(7.08–9.06) uM |
| UGT1A1 (Homo sapiens) (protein) HAGKILLIPVDGSHWLSMLGAIQQLQQRGHEIVVLAPDASLYIRDGAFYTLKTYPVPFQREDVKESFVSLGHNVFENDSFLQRVIKTYKKIKKDSAMLLSGCSHLLHNKELMASLAESSFDVMLTDPFLPCSPIVAQYLSLPTVFFLHALPCSLEFEATQCPNPFSYVPRPLSSHSDHMTFLQRVKNMLIAFSQNFLCDVVYSPYATLASEFLQREVTVQDLLSSASVWLFRSDFVKDYPRPIMPNMVFVGGINCLHQNPLSQEFEAYINASGEHGIVVFSLGSMVSEIPEKKAMAIADALGKIPQTVLWRYTGTRPSNLANNTILVKWLPQNDLLGHPMTRAFITHAGSHGVYESICNGVPMVMMPLFGDQMDNAKRMETKGAGVTLNVLEMTSEDLENALKAVINDKSYKENIMRLSSLHKDRPVEPLDLAVFWVEFVMRHKGAPHLRPAAHDLTWYQYHSLDVIGFLLAVVLTVAFITFKCCAYGYRKCLGKKGRVKKAHKSKTH |  | 72.6±6.9(58.2–87.0) uM | 0.00011 µmol/min/mg |  |  | 101±11(78–123) uM |
| UGT1A8 (Homo sapiens) (protein) GKLLVVPMDGSHWFTMQSVVEKLILRGHEVVVVMPEVSWQLGKSLNCTVKTYSTSYTLEDLDREFMDFADAQWKAQVRSLFSLFLSSSNGFFNLFFSHCRSLFNDRKLVEYLKESSFDAVFLDPFDACGLIVAKYFSLPSVVFARGIACHYLEEGAQCPAPLSYVPRILLGFSDAMTFKERVRNHIMHLEEHLFCQYFSKNALEIASEILQTPVTAYDLYSHTSIWLLRTDFVLDYPKPVMPNMIFIGGINCHQGKPLPMEFEAYINASGEHGIVVFSLGSMVSEIPEKKAMAIADALGKIPQTVLWRYTGTRPSNLANNTILVKWLPQNDLLGHPMTRAFITHAGSHGVYESICNGVPMVMMPLFGDQMDNAKRMETKGAGVTLNVLEMTSEDLENALKAVINDKSYKENIMRLSSLHKDRPVEPLDLAVFWVEFVMRHKGAPHLRPAAHDLTWYQYHSLDVIGFLLAVVLTVAFITFKCCAYGYRKCLGKKGRVKKAHKSKTH |  | 134±9(115–154) uM | 0.0012 µmol/min/mg | 73.1±3.7(65.4–80.7) uM | 0.0012 µmol/min/mg |  |

From publication PMC3553014, “Albumin Stimulates the Activity of the Human UDP-Glucuronosyltransferases 1A7, 1A8, 1A10, 2A1 and 2B15, but the Effects Are Enzyme and Substrate Dependent” (PLoS ONE, 2013)
